Results taken from patent US12630600B2 (MEDIMMUNE LIMITED, priority 2022, dated 2026).
Starred links: 1 amine or outer side, 2 acyl side, 3 side chain; linkers in the order of their positions; H or OH if unused. Non-standard residues stand in square brackets, D forms with d. Groups on a side chain read outwards from the residue. Primed or numbered codes have the meaning given here. No end group written: not given here. *: point of attachment. C20 diacid = O=C(O)CCCCCCCCCCCCCCCCCCC(=O)*; C18 diacid = O=C(O)CCCCCCCCCCCCCCCCC(=O)*; γGlu = O=C(O)[C@H](CCC(=O)[*:2])N[*:1]; Palmitoyl = CCCCCCCCCCCCCCCC(=O)*; αMeF = C[C@](N)(Cc1ccccc1)C(=O)O; Myristoyl = CCCCCCCCCCCCCC(=O)*; PEG2′ = polyethylene glycol 2; αMeS = C[C@](N)(CO)C(=O)O; AEEA = NCCOCCOCC(=O)O; Aib = CC(C)(N)C(=O)O

B1: Peptide 458 (peptide)
peptide: H[Aib]QGTFTSDVSK[αMeF]LDTK([AEEA-AEEA-γGlu-γGlu-C20 diacid])RARDFVQWLLE[Aib]G-NH2
B2: Peptide 35 (peptide)
peptide: H[Aib]QGTFTSDVSK[αMeF]LDTK([AEEA-AEEA-γGlu-C18 diacid])RAQDFVQWLL[Aib]T-OH
modifications: N-terminus assumed
SMILES: CC(C)C[C@H](NC(=O)[C@H](Cc1c[nH]c2ccccc12)NC(=O)[C@H](CCC(N)=O)NC(=O)[C@@H](NC(=O)[C@H](Cc1ccccc1)NC(=O)[C@H](CC(=O)O)NC(=O)[C@H](CCC(N)=O)NC(=O)[C@H](C)NC(=O)[C@H](CCCNC(=N)N)NC(=O)[C@H](CCCCNC(=O)COCCOCCNC(=O)COCCOCCNC(=O)CC[C@H](NC(=O)CCCCCCCCCCCCCCCCC(=O)O)C(=O)O)NC(=O)[C@@H](NC(=O)[C@H](CC(=O)O)NC(=O)[C@H](CC(C)C)NC(=O)[C@](C)(Cc1ccccc1)NC(=O)[C@H](CCCCN)NC(=O)[C@H](CO)NC(=O)[C@@H](NC(=O)[C@H](CC(=O)O)NC(=O)[C@H](CO)NC(=O)[C@@H](NC(=O)[C@H](Cc1ccccc1)NC(=O)[C@@H](NC(=O)CNC(=O)[C@H](CCC(N)=O)NC(=O)C(C)(C)NC(=O)[C@@H](N)Cc1c[nH]cn1)[C@@H](C)O)[C@@H](C)O)C(C)C)[C@@H](C)O)C(C)C)C(=O)N[C@@H](CC(C)C)C(=O)NC(C)(C)C(=O)N[C@H](C(=O)O)[C@@H](C)O
B3: Peptide 134 (peptide)
peptide: H[αMeS]QGS[αMeF]TSDVSKILDSK([PEG2′-PEG2′-γGlu-Palmitoyl])AAQD[αMeF]VQ[Aib]IINT-NH2
B4: Peptide 135 (peptide)
peptide: H[αMeS]QGS[αMeF]TSDVSKILDSK([PEG2′-PEG2′-γGlu-Myristoyl])AAQD[αMeF]VQ[Aib]IINT-NH2
B5: Peptide 140 (peptide)
peptide: H[Aib]QGTFTSDVSK[αMeF]LDTK([AEEA-AEEA-γGlu-C18 diacid])RAQDFVRWLLE[Aib]G-OH
modifications: N-terminus assumed
SMILES: CC(C)C[C@H](NC(=O)[C@H](Cc1c[nH]c2ccccc12)NC(=O)[C@H](CCCNC(=N)N)NC(=O)[C@@H](NC(=O)[C@H](Cc1ccccc1)NC(=O)[C@H](CC(=O)O)NC(=O)[C@H](CCC(N)=O)NC(=O)[C@H](C)NC(=O)[C@H](CCCNC(=N)N)NC(=O)[C@H](CCCCNC(=O)COCCOCCNC(=O)COCCOCCNC(=O)CC[C@H](NC(=O)CCCCCCCCCCCCCCCCC(=O)O)C(=O)O)NC(=O)[C@@H](NC(=O)[C@H](CC(=O)O)NC(=O)[C@H](CC(C)C)NC(=O)[C@](C)(Cc1ccccc1)NC(=O)[C@H](CCCCN)NC(=O)[C@H](CO)NC(=O)[C@@H](NC(=O)[C@H](CC(=O)O)NC(=O)[C@H](CO)NC(=O)[C@@H](NC(=O)[C@H](Cc1ccccc1)NC(=O)[C@@H](NC(=O)CNC(=O)[C@H](CCC(N)=O)NC(=O)C(C)(C)NC(=O)[C@@H](N)Cc1c[nH]cn1)[C@@H](C)O)[C@@H](C)O)C(C)C)[C@@H](C)O)C(C)C)C(=O)N[C@@H](CC(C)C)C(=O)N[C@@H](CCC(=O)O)C(=O)NC(C)(C)C(=O)NCC(=O)O
B6: Peptide 461 (peptide)
peptide: H[Aib]QGTFTSDVSK[αMeF]LDRK([AEEA-AEEA-γGlu-C18 diacid])RAQDFVRWLLAE-NH2
modifications: N-terminus assumed
SMILES: CC(C)C[C@H](NC(=O)[C@H](CC(C)C)NC(=O)[C@H](Cc1c[nH]c2ccccc12)NC(=O)[C@H](CCCNC(=N)N)NC(=O)[C@@H](NC(=O)[C@H](Cc1ccccc1)NC(=O)[C@H](CC(=O)O)NC(=O)[C@H](CCC(N)=O)NC(=O)[C@H](C)NC(=O)[C@H](CCCNC(=N)N)NC(=O)[C@H](CCCCNC(=O)COCCOCCNC(=O)COCCOCCNC(=O)CC[C@H](NC(=O)CCCCCCCCCCCCCCCCC(=O)O)C(=O)O)NC(=O)[C@H](CCCNC(=N)N)NC(=O)[C@H](CC(=O)O)NC(=O)[C@H](CC(C)C)NC(=O)[C@](C)(Cc1ccccc1)NC(=O)[C@H](CCCCN)NC(=O)[C@H](CO)NC(=O)[C@@H](NC(=O)[C@H](CC(=O)O)NC(=O)[C@H](CO)NC(=O)[C@@H](NC(=O)[C@H](Cc1ccccc1)NC(=O)[C@@H](NC(=O)CNC(=O)[C@H](CCC(N)=O)NC(=O)C(C)(C)NC(=O)[C@@H](N)Cc1c[nH]cn1)[C@@H](C)O)[C@@H](C)O)C(C)C)C(C)C)C(=O)N[C@@H](C)C(=O)N[C@@H](CCC(=O)O)C(N)=O
B7: Peptide 480 (peptide)
peptide: H[Aib]QGTFTSDVSK[αMeF]LDTK([AEEA-AEEA-γGlu-C18 diacid])RARDFVQWLLE[Aib]K-NH2
modifications: N-terminus assumed
SMILES: CC(C)C[C@H](NC(=O)[C@H](Cc1c[nH]c2ccccc12)NC(=O)[C@H](CCC(N)=O)NC(=O)[C@@H](NC(=O)[C@H](Cc1ccccc1)NC(=O)[C@H](CC(=O)O)NC(=O)[C@H](CCCNC(=N)N)NC(=O)[C@H](C)NC(=O)[C@H](CCCNC(=N)N)NC(=O)[C@H](CCCCNC(=O)COCCOCCNC(=O)COCCOCCNC(=O)CC[C@H](NC(=O)CCCCCCCCCCCCCCCCC(=O)O)C(=O)O)NC(=O)[C@@H](NC(=O)[C@H](CC(=O)O)NC(=O)[C@H](CC(C)C)NC(=O)[C@](C)(Cc1ccccc1)NC(=O)[C@H](CCCCN)NC(=O)[C@H](CO)NC(=O)[C@@H](NC(=O)[C@H](CC(=O)O)NC(=O)[C@H](CO)NC(=O)[C@@H](NC(=O)[C@H](Cc1ccccc1)NC(=O)[C@@H](NC(=O)CNC(=O)[C@H](CCC(N)=O)NC(=O)C(C)(C)NC(=O)[C@@H](N)Cc1c[nH]cn1)[C@@H](C)O)[C@@H](C)O)C(C)C)[C@@H](C)O)C(C)C)C(=O)N[C@@H](CC(C)C)C(=O)N[C@@H](CCC(=O)O)C(=O)NC(C)(C)C(=O)N[C@@H](CCCCN)C(N)=O
B8: Peptide 489 (peptide)
peptide: H[Aib]QGTFTSDVSK[αMeF]LDTK([AEEA-AEEA-γGlu-C18 diacid])RARDFVQWLL[Aib]TE-NH2
modifications: N-terminus assumed
SMILES: CC(C)C[C@H](NC(=O)[C@H](Cc1c[nH]c2ccccc12)NC(=O)[C@H](CCC(N)=O)NC(=O)[C@@H](NC(=O)[C@H](Cc1ccccc1)NC(=O)[C@H](CC(=O)O)NC(=O)[C@H](CCCNC(=N)N)NC(=O)[C@H](C)NC(=O)[C@H](CCCNC(=N)N)NC(=O)[C@H](CCCCNC(=O)COCCOCCNC(=O)COCCOCCNC(=O)CC[C@H](NC(=O)CCCCCCCCCCCCCCCCC(=O)O)C(=O)O)NC(=O)[C@@H](NC(=O)[C@H](CC(=O)O)NC(=O)[C@H](CC(C)C)NC(=O)[C@](C)(Cc1ccccc1)NC(=O)[C@H](CCCCN)NC(=O)[C@H](CO)NC(=O)[C@@H](NC(=O)[C@H](CC(=O)O)NC(=O)[C@H](CO)NC(=O)[C@@H](NC(=O)[C@H](Cc1ccccc1)NC(=O)[C@@H](NC(=O)CNC(=O)[C@H](CCC(N)=O)NC(=O)C(C)(C)NC(=O)[C@@H](N)Cc1c[nH]cn1)[C@@H](C)O)[C@@H](C)O)C(C)C)[C@@H](C)O)C(C)C)C(=O)N[C@@H](CC(C)C)C(=O)NC(C)(C)C(=O)N[C@H](C(=O)N[C@@H](CCC(=O)O)C(N)=O)[C@@H](C)O
B9: Peptide 511 (peptide)
peptide: H[Aib]QGTFTSDVSK[αMeF]LDTK([AEEA-AEEA-γGlu-C20 diacid])RARDFVRWLL[Aib]E-NH2
modifications: N-terminus assumed
SMILES: CC(C)C[C@H](NC(=O)[C@H](Cc1c[nH]c2ccccc12)NC(=O)[C@H](CCCNC(=N)N)NC(=O)[C@@H](NC(=O)[C@H](Cc1ccccc1)NC(=O)[C@H](CC(=O)O)NC(=O)[C@H](CCCNC(=N)N)NC(=O)[C@H](C)NC(=O)[C@H](CCCNC(=N)N)NC(=O)[C@H](CCCCNC(=O)COCCOCCNC(=O)COCCOCCNC(=O)CC[C@H](NC(=O)CCCCCCCCCCCCCCCCCCC(=O)O)C(=O)O)NC(=O)[C@@H](NC(=O)[C@H](CC(=O)O)NC(=O)[C@H](CC(C)C)NC(=O)[C@](C)(Cc1ccccc1)NC(=O)[C@H](CCCCN)NC(=O)[C@H](CO)NC(=O)[C@@H](NC(=O)[C@H](CC(=O)O)NC(=O)[C@H](CO)NC(=O)[C@@H](NC(=O)[C@H](Cc1ccccc1)NC(=O)[C@@H](NC(=O)CNC(=O)[C@H](CCC(N)=O)NC(=O)C(C)(C)NC(=O)[C@@H](N)Cc1c[nH]cn1)[C@@H](C)O)[C@@H](C)O)C(C)C)[C@@H](C)O)C(C)C)C(=O)N[C@@H](CC(C)C)C(=O)NC(C)(C)C(=O)N[C@@H](CCC(=O)O)C(N)=O
B10: Peptide 463 (peptide)
peptide: H[Aib]QGTFTSDVSK[αMeF]LDSK([AEEA-AEEA-γGlu-γGlu-C18 diacid])RAQDFVQWLL[Aib]T-NH2
modifications: N-terminus assumed
SMILES: CC(C)C[C@H](NC(=O)[C@H](Cc1c[nH]c2ccccc12)NC(=O)[C@H](CCC(N)=O)NC(=O)[C@@H](NC(=O)[C@H](Cc1ccccc1)NC(=O)[C@H](CC(=O)O)NC(=O)[C@H](CCC(N)=O)NC(=O)[C@H](C)NC(=O)[C@H](CCCNC(=N)N)NC(=O)[C@H](CCCCNC(=O)COCCOCCNC(=O)COCCOCCNC(=O)CC[C@H](NC(=O)CC[C@H](NC(=O)CCCCCCCCCCCCCCCCC(=O)O)C(=O)O)C(=O)O)NC(=O)[C@H](CO)NC(=O)[C@H](CC(=O)O)NC(=O)[C@H](CC(C)C)NC(=O)[C@](C)(Cc1ccccc1)NC(=O)[C@H](CCCCN)NC(=O)[C@H](CO)NC(=O)[C@@H](NC(=O)[C@H](CC(=O)O)NC(=O)[C@H](CO)NC(=O)[C@@H](NC(=O)[C@H](Cc1ccccc1)NC(=O)[C@@H](NC(=O)CNC(=O)[C@H](CCC(N)=O)NC(=O)C(C)(C)NC(=O)[C@@H](N)Cc1c[nH]cn1)[C@@H](C)O)[C@@H](C)O)C(C)C)C(C)C)C(=O)N[C@@H](CC(C)C)C(=O)NC(C)(C)C(=O)N[C@H](C(N)=O)[C@@H](C)O

The binders below were run against human glucagon receptor (human, UniProt P47871) (assay: cell-based or functional assay).

cAMP production EC50 | Binder
385 pM | B1
335 pM | B2
15 pM | B3
15 pM | B4

The binders below were run against human GLP-1 receptor (human, UniProt P43220) (assay: cell-based or functional assay).

cAMP production EC50 | Binder
22.7 pM | B5
167 pM | B6
12.6 pM | B7
0.592 pM | B3
22.8 pM | B8
118 pM | B9
274 pM | B10
0.407 pM | B4
